The text below walks through data of patent US20090291081A1.

The target of one test is human IL-1α (human) (UniProt P01583). As to the kind of experiment: cell-based or functional assay.
A further test addresses human IL-1β (human) (UniProt P01584). In words: cell-based or functional assay.

Some results are limits rather than exact numbers.

Chain of human IL-1β (human) (P01584 117-269 limits assumed): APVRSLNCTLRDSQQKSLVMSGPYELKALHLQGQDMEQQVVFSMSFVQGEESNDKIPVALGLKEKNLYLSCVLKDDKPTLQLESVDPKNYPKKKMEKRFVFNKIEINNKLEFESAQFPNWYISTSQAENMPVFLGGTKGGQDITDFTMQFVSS
Chain of human IL-1α (human) (P01583 113-271 limits assumed): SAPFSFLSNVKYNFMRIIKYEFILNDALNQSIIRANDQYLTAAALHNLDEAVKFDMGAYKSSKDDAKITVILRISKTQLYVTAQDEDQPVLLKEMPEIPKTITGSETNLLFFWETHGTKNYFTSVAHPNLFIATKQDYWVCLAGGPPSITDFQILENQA

B1: ABT1-207/ABT2-108-538x scFc (Fc fusion, part only; not given: Domain junction linker and Fc, not shown: a dimerising Fc or GST)
chain, part: EVQLLESGGGLIQPGGSLRLSCAASGFTFGRYYMSWVRQAPGKGLEWVSSIDYLGTNTYYADSVKGRFTISRDNSKNTLYLQMNSLRAEDTAVYYCAKLTRIRPPNFDYWGQGTLVTVSSEVQLLESGGGLVQPGGSLRLSCAASGFTFADEGMMWVRQAPGKGLEWVSRITYSGKNTYYADSVKGRFTISRDNSKNTLYLQMNSLRAEDTAVYYCAKYTGRILGHHLFDYWGQGTLVTVSSGGGGSGGGGSGGGGS
B1: the Estimated EC50, IL-1α neutralization (MRC-5) with human IL-1α (human) is 25 nM. Besides, the Estimated EC50, IL-1β neutralization (MRC-5) in the test with human IL-1β (human) was 1.1 nM.

B2: ABT2-108-538x/ABT1-207 scFc (Fc fusion, part only; not given: Domain junction linker and Fc, not shown: a dimerising Fc or GST)
chain, part: EVQLLESGGGLVQPGGSLRLSCAASGFTFADEGMMWVRQAPGKGLEWVSRITYSGKNTYYADSVKGRFTISRDNSKNTLYLQMNSLRAEDTAVYYCAKYTGRILGHHLFDYWGQGTLVTVSSEVQLLESGGGLIQPGGSLRLSCAASGFTFGRYYMSWVRQAPGKGLEWVSSIDYLGTNTYYADSVKGRFTISRDNSKNTLYLQMNSLRAEDTAVYYCAKLTRIRPPNFDYWGQGTLVTVSSGGGGSGGGGSGGGGS
For B2, the Estimated EC50, IL-1α neutralization (MRC-5) with human IL-1α (human) is 50 nM. In the test with human IL-1β (human), the Estimated EC50, IL-1β neutralization (MRC-5) was 0.002 nM.

B3: ABT2-108-538x/ABT1-98 scFc (Fc fusion, part only; not given: Domain junction linker and Fc, not shown: a dimerising Fc or GST)
chain, part: EVQLLESGGGLVQPGGSLRLSCAASGFTFADEGMMWVRQAPGKGLEWVSRITYSGKNTYYADSVKGRFTISRDNSKNTLYLQMNSLRAEDTAVYYCAKYTGRILGHHLFDYWGQGTLVTVSSEVQLLESGGGLVQPGGSLRLSCAASGFTFDGYIMSWVRQAPGKGLEWVSTISPLGSVTYYADSVKGRFTISRDNSKNTLYLQMNSLRAEDTAVYYCAKKGPWFDYWGQGTLVTVSSGGGGSGGGGSGGGGS
On to B3, for which the Estimated EC50, IL-1α neutralization (MRC-5) with human IL-1α (human) was 3 nM. The Estimated EC50, IL-1β neutralization (MRC-5) with human IL-1β (human) is < 0.001 nM.

B4: ABT1-98/ABT2-108-538x scFc (Fc fusion, part only; not given: Domain junction linker and Fc, not shown: a dimerising Fc or GST)
chain, part: EVQLLESGGGLVQPGGSLRLSCAASGFTFDGYIMSWVRQAPGKGLEWVSTISPLGSVTYYADSVKGRFTISRDNSKNTLYLQMNSLRAEDTAVYYCAKKGPWFDYWGQGTLVTVSSEVQLLESGGGLVQPGGSLRLSCAASGFTFADEGMMWVRQAPGKGLEWVSRITYSGKNTYYADSVKGRFTISRDNSKNTLYLQMNSLRAEDTAVYYCAKYTGRILGHHLFDYWGQGTLVTVSSGGGGSGGGGSGGGGS
Regarding B4, the Estimated EC50, IL-1α neutralization (MRC-5) in the test with human IL-1α (human) is 30 nM. Besides, the Estimated EC50, IL-1β neutralization (MRC-5) in the test with human IL-1β (human) is 1.3 nM.
